Results on four substances are retold here after article PMC7335327.

Assay [1] has as its target biotinylated clamp loader complex ^bioχψτ3δδ’ (Escherichia coli K12) (UniProt P28905). The assay is described as follows: SPR.
Assay [2] addresses DnaB (Escherichia coli) (UniProt P0ACB0). The settings on record: cited from earlier work.
Assay [3] addresses DnaB^F102C (Escherichia coli K12) (UniProt P0ACB0).
The target of assay [4] is DnaB helicase, wild type (DnaB^wt) (Escherichia coli K12) (UniProt P0ACB0).
The target of assay [5] is DnaB^F102C (Escherichia coli K12) (UniProt P0ACB0). The assay is described as follows: cross-linking.

Take “DnaB^wt•DnaGC complex (from UniProt P0ACB0 1-471)”: the Kd in assay [1] was determined as 2.6 nM.
Take DnaG (from UniProt P0ABS5): the Kd in assay [2] was 2800 nM.
Substance “DnaGC, C-terminal helicase-binding domain of DnaG primase (domain or fragment)” had a fold less efficient interaction than with wild-type DnaB in assay [3] of 200 fold.
In assay [4], DnaGC^R568C/C492L (domain or fragment) yielded a fold weaker interaction than wild-type DnaGC of 30 fold. This substance also came in with a disulfide crosslinking efficiency in assay [5] of 100%.
